Here are results for 1 substance from publication doi:10.1101/2023.09.14.557733.

The experiment has as its target FgSte2-yellow fluorescent protein (F. graminearum). The experiment is described as follows: FRET or BRET. Background: In BRET a luciferase serves as donor, and the signal depends on an acceptor being close.

Turning to FgSte3-Nano luciferase (receptor), the BRET50 (galactose concentration for donor induction) was determined as 2 % galactose, the mBRET is 110 mBRET and the netBRET was above 0.1 netBRET.
